Target: GST-NSUN5 (UniProt Q96P11 1-429)
Experiment: EMSA

GST-NSUN5, sequence (Q96P11 whole entry): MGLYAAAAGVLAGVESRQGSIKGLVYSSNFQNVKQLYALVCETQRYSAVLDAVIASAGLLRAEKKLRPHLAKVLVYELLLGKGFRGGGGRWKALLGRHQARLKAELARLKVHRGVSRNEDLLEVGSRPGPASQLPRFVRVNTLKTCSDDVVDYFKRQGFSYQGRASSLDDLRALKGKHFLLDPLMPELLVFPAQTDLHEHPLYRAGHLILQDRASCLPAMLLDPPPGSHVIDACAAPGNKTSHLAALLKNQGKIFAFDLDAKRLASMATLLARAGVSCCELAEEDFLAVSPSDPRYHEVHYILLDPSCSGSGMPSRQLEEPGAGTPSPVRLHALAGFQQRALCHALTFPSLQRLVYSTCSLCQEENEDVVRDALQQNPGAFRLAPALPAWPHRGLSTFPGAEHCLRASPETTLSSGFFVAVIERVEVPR

B1: Probe1 (Oligo 1), CTNNB1 (ssRNA)
RNA: GUCCUUCGGGCUGGUGACAGGG
binding result: binds

— PMC10998593
